Assay results as given in the supplement of paper PMC9112550, “Optimization of the antimicrobial peptide Bac7 by deep mutational scanning” (BMC Biology, 2022).

These sequences were tested on Escherichia coli TOP10 (assay: shrunken log2 fold change of peptide-encoding DNA abundance (4.5 h post-induction vs induction); higher = less antimicrobial activity (less host growth inhibition)). Settings: time post-induction: 4.5 h; library: site-saturation at positions 5, 18, 19, 20.
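Further: peptides expressed intracellularly from a pBAD plasmid library in pooled LB shake-flask culture, induced with 0.3% L-arabinose, DNA abundance read by NGS, three biological replicates, DESeq2 with apeglm shrinkage.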

Sequence | shrunken log2 fold change
RRIRNRPPRLPRPRPRPGDCPRP | 0.404
RRIRRRPPRLPRPRPRPDFYPRP | 0.159
RRIRQRPPRLPRPRPRPFNYPRP | -0.304
RRIRMRPPRLPRPRPRPFIEPRP | -0.0583
RRIRQRPPRLPRPRPRPPEWPRP | -0.0462
RRIRTRPPRLPRPRPRPLQLPRP | -0.167
RRIRCRPPRLPRPRPRPTHSPRP | 0.288
RRIRHRPPRLPRPRPRPHCLPRP | -0.777
RRIRVRPPRLPRPRPRPITEPRP | -0.0116
RRIRARPPRLPRPRPRPAHIPRP | 0.241
RRIRFRPPRLPRPRPRPQIEPRP | -0.24
RRIRFRPPRLPRPRPRPAKKPRP | 0.188
RRIRERPPRLPRPRPRPMNDPRP | -0.0199
RRIRSRPPRLPRPRPRPANGPRP | -0.0714
RRIRPRPPRLPRPRPRPEKPPRP | -0.129
RRIRHRPPRLPRPRPRPYGPPRP | -0.311
RRIRFRPPRLPRPRPRPMHNPRP | -0.52
RRIRDRPPRLPRPRPRPKQKPRP | 0.03
RRIRERPPRLPRPRPRPHPMPRP | -0.334
RRIRSRPPRLPRPRPRPGPRPRP | 0.659
RRIRGRPPRLPRPRPRPSSAPRP | 0.592
RRIRTRPPRLPRPRPRPRVIPRP | -0.12
RRIRHRPPRLPRPRPRPAHQPRP | 0.0515
RRIRHRPPRLPRPRPRPVHEPRP | -0.0609
RRIRTRPPRLPRPRPRPTFTPRP | 0.00867

Sequence | shrunken log2 fold change
RRIRIRPPRLPRPRPRPQFPPRP | -0.0492
RRIRYRPPRLPRPRPRPWQPPRP | -0.274
RRIRLRPPRLPRPRPRPLANPRP | -0.00613
RRIRPRPPRLPRPRPRPTDYPRP | -0.132
RRIRTRPPRLPRPRPRPCNNPRP | -0.276
RRIRERPPRLPRPRPRPRPMPRP | -0.0942
RRIRVRPPRLPRPRPRPWPDPRP | 0.033
RRIRERPPRLPRPRPRPGTVPRP | -0.973
RRIRLRPPRLPRPRPRPCDGPRP | -0.181
RRIRRRPPRLPRPRPRPHCLPRP | -0.192
RRIRWRPPRLPRPRPRPTCLPRP | 0.324
RRIRERPPRLPRPRPRPEHLPRP | 0.0163
RRIRVRPPRLPRPRPRPPIVPRP | 0.0432
RRIRLRPPRLPRPRPRPDKMPRP | -0.121
RRIRDRPPRLPRPRPRPHICPRP | -0.205
RRIRRRPPRLPRPRPRPTMQPRP | 0.275
RRIRTRPPRLPRPRPRPIFVPRP | 0.144
RRIRNRPPRLPRPRPRPTCYPRP | -0.226
RRIRSRPPRLPRPRPRPMWLPRP | 0.0415
RRIRSRPPRLPRPRPRPWGYPRP | -0.226
RRIRRRPPRLPRPRPRPIVPPRP | 0.605
RRIRERPPRLPRPRPRPQKVPRP | -0.102
RRIRSRPPRLPRPRPRPHEMPRP | 0.0637
RRIRKRPPRLPRPRPRPHVNPRP | 0.0388
RRIRFRPPRLPRPRPRPWAPPRP | -0.013

Sequence | shrunken log2 fold change
RRIRCRPPRLPRPRPRPCTCPRP | -0.583
RRIRRRPPRLPRPRPRPFTKPRP | -0.221
RRIRVRPPRLPRPRPRPPNAPRP | 0.295
RRIRKRPPRLPRPRPRPQWWPRP | 0.243
RRIRQRPPRLPRPRPRPPQIPRP | 0.238
RRIRDRPPRLPRPRPRPDMVPRP | 0.00109
RRIRARPPRLPRPRPRPLDSPRP | 0.166
RRIRNRPPRLPRPRPRPDMTPRP | -0.287
RRIRSRPPRLPRPRPRPMYQPRP | -0.594
RRIRCRPPRLPRPRPRPNFAPRP | -0.098
RRIRSRPPRLPRPRPRPMDAPRP | -0.0809
RRIRNRPPRLPRPRPRPPTSPRP | 0.298
RRIRQRPPRLPRPRPRPQCYPRP | -0.168
RRIRCRPPRLPRPRPRPESTPRP | 0.0373
RRIRYRPPRLPRPRPRPNHFPRP | -0.0628
RRIRIRPPRLPRPRPRPSRAPRP | -0.212
RRIRARPPRLPRPRPRPKELPRP | 0.404
RRIRTRPPRLPRPRPRPVAEPRP | 0.191
RRIRNRPPRLPRPRPRPSTWPRP | -0.332
RRIRMRPPRLPRPRPRPLECPRP | -0.0215
RRIRRRPPRLPRPRPRPKHEPRP | 0.0619
RRIRMRPPRLPRPRPRPMCVPRP | 1.45
RRIRYRPPRLPRPRPRPMIAPRP | -0.188
RRIRSRPPRLPRPRPRPRNRPRP | -0.198
RRIRNRPPRLPRPRPRPGFLPRP | -0.105
